By EC50 is commonly meant the concentration at which the effect is half-maximal. A higher EC50 goes with a less potent agent.

Residue numbers refer to the chain shown, from its start.

This is an account of results in US20200165335A1 (Seagen, published 2020).

The chains are these.
T1: human LIV-1 (human, UniProt Q13433 29-755)
T1 construct: also called hLIV-1; Q13433
T1 sequence: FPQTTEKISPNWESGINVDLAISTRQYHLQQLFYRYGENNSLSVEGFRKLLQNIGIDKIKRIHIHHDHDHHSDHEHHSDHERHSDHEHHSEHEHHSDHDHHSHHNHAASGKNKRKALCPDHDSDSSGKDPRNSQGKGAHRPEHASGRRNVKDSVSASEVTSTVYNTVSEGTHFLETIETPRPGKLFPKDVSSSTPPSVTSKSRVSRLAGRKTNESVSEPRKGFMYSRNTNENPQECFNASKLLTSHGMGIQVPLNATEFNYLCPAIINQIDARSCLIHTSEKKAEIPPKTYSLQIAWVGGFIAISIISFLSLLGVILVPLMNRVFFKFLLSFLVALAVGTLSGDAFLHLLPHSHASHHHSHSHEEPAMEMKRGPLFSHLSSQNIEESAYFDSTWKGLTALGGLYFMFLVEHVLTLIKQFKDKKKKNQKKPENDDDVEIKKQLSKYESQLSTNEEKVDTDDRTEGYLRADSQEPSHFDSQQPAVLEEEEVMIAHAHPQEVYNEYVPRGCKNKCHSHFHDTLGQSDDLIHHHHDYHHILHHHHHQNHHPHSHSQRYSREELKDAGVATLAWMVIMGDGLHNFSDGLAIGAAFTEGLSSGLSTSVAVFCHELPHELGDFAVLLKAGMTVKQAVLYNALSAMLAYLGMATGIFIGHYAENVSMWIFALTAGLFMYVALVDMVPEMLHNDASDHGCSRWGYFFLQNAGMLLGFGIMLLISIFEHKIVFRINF

B1: humanized BR2-14a antibody HALA (antibody, V domains shown)
VH: QVQLVQSGAEVKKPGASVKVSCKASGYTFTDYYMHWVRQAPGQGLEWMGWIDPENGDTEYAPTFQGRVTMTRDTSISTAYMELSRLRSDDTAVYYCARHDAHYGTWFAYWGQGTLVTVSS
VL: DVVMTQSPLSLPVTLGQPASISCRSSQSIIRNDGNTYLEWFQQRPGQSPRRLIYRVSNRFSGVPDRFSGSGSGTDFTLKISRVEAEDVGVYYCFQGSHVPYTFGGGTKVEIKR
notes: also called hLIV-1 HA + hLIV-1 LA
B2: humanized BR2-14a antibody HALF (antibody, V domains shown)
VH: B1 VH
VL: B1 VL with F41Y, Q42L, R44K, R50K, R51L
notes: also called hLIV-1 HA + hLIV-1 LF
B3: humanized BR2-14a antibody HELF (antibody, V domains shown)
VH: QVQLVQSGAEVKKPGASVKVSCKASGFNIEDYYMHWVRQAPGQGLEWIGWIDPENGDTEYAPTFQGKATMTADTSINTAYMELSRLRSDDTAVYYCNVHDAHYGTWFAYWGQGTLVTVSS
VL: B1 VL with F41Y, Q42L, R44K, R50K, R51L
notes: also called hLIV-1 HE + hLIV-1 LF
B4: humanized BR2-14a antibody HBLC (antibody, V domains shown)
VH: B1 VH with F29I, T30E, S77N
VL: B1 VL with Q42L
notes: also called hLIV-1 HB + hLIV-1 LC
B5: humanized BR2-14a antibody HCLB (antibody, V domains shown)
VH: B1 VH with R67K, V68A, R72A
VL: B1 VL with F41Y
notes: also called hLIV-1 HC + hLIV-1 LB
B6: humanized BR2-14a antibody HCLE (antibody, V domains shown)
VH: B1 VH with R67K, V68A, R72A
VL: B1 VL with R51L
notes: also called hLIV-1 HC + hLIV-1 LE
B7: humanized BR2-14a antibody HDLA (antibody, V domains shown)
VH: B1 VH with Y27F, A97N, R98V
VL: B1 VL
notes: also called hLIV-1 HD + hLIV-1 LA
B8: humanized BR2-14a antibody HELC (antibody, V domains shown)
VH: B3 VH
VL: B1 VL with Q42L
notes: also called hLIV-1 HE + hLIV-1 LC
B9: humanized BR2-14a antibody HBLA (antibody, V domains shown)
VH: B1 VH with F29I, T30E, S77N
VL: B1 VL
notes: also called hLIV-1 HB + hLIV-1 LA
B10: humanized BR2-14a antibody HCLF (antibody, V domains shown)
VH: B1 VH with R67K, V68A, R72A
VL: B1 VL with F41Y, Q42L, R44K, R50K, R51L
notes: also called hLIV-1 HC + hLIV-1 LF
B11: humanized BR2-14a antibody HCLC (antibody, V domains shown)
VH: B1 VH with R67K, V68A, R72A
VL: B1 VL with Q42L
notes: also called hLIV-1 HC + hLIV-1 LC
B12: humanized BR2-14a antibody HCLA (antibody, V domains shown)
VH: B1 VH with R67K, V68A, R72A
VL: B1 VL
notes: also called hLIV-1 HC + hLIV-1 LA
B13: humanized BR2-14a antibody HDLE (antibody, V domains shown)
VH: B1 VH with Y27F, A97N, R98V
VL: B1 VL with R51L
notes: also called hLIV-1 HD + hLIV-1 LE
B14: humanized BR2-14a antibody HELB (antibody, V domains shown)
VH: B3 VH
VL: B1 VL with F41Y
notes: also called hLIV-1 HE + hLIV-1 LB
B15: humanized BR2-14a antibody HDLF (antibody, V domains shown)
VH: B1 VH with Y27F, A97N, R98V
VL: B1 VL with F41Y, Q42L, R44K, R50K, R51L
notes: also called hLIV-1 HD + hLIV-1 LF
B16: humanized BR2-14a antibody HDLB (antibody, V domains shown)
VH: B1 VH with Y27F, A97N, R98V
VL: B1 VL with F41Y
notes: also called hLIV-1 HD + hLIV-1 LB
B17: humanized BR2-14a antibody HBLD (antibody, V domains shown)
VH: B1 VH with F29I, T30E, S77N
VL: B1 VL with R50K
notes: also called hLIV-1 HB + hLIV-1 LD
B18: humanized BR2-14a antibody HELD (antibody, V domains shown)
VH: B3 VH
VL: B1 VL with R50K
notes: also called hLIV-1 HE + hLIV-1 LD
B19: humanized BR2-14a antibody HELA (antibody, V domains shown)
VH: B3 VH
VL: B1 VL
notes: also called hLIV-1 HE + hLIV-1 LA
B20: humanized BR2-14a antibody HBLE (antibody, V domains shown)
VH: B1 VH with F29I, T30E, S77N
VL: B1 VL with R51L
notes: also called hLIV-1 HB + hLIV-1 LE
B21: humanized BR2-14a antibody HCLD (antibody, V domains shown)
VH: B1 VH with R67K, V68A, R72A
VL: B1 VL with R50K
notes: also called hLIV-1 HC + hLIV-1 LD
B22: humanized BR2-14a antibody HDLC (antibody, V domains shown)
VH: B1 VH with Y27F, A97N, R98V
VL: B1 VL with Q42L
notes: also called hLIV-1 HD + hLIV-1 LC
B23: humanized BR2-14a antibody HDLD (antibody, V domains shown)
VH: B1 VH with Y27F, A97N, R98V
VL: B1 VL with R50K
notes: also called hLIV-1 HD + hLIV-1 LD
B24: humanized BR2-14a antibody HBLF (antibody, V domains shown)
VH: B1 VH with F29I, T30E, S77N
VL: B1 VL with F41Y, Q42L, R44K, R50K, R51L
notes: also called hLIV-1 HB + hLIV-1 LF
B25: humanized BR2-14a antibody HALE (antibody, V domains shown)
VH: B1 VH
VL: B1 VL with R51L
notes: also called hLIV-1 HA + hLIV-1 LE
B26: humanized BR2-14a antibody HALC (antibody, V domains shown)
VH: B1 VH
VL: B1 VL with Q42L
notes: also called hLIV-1 HA + hLIV-1 LC
B27: humanized BR2-14a antibody HALB (antibody, V domains shown)
VH: B1 VH
VL: B1 VL with F41Y
notes: also called hLIV-1 HA + hLIV-1 LB
B28: humanized BR2-14a antibody HALD (antibody, V domains shown)
VH: B1 VH
VL: B1 VL with R50K
notes: also called hLIV-1 HA + hLIV-1 LD

The assay deals with T1, human LIV-1. Briefly: competition flow cytometry, CHO cells expressing human LIV-1, vs 5 nM AF647-labelled BR2-14a. Here is the method:
1×10⁵ CHO cells expressing recombinant human LIV-1 in PBS/BSA were aliquoted into each well of a 96-well v-bottom plates on ice. […] Cells were pelleted and washed 3 times with PBS/BSA. The cells were pelleted and resuspended in 125 μL of PBS/BSA. Fluorescence was analyzed by flow cytometry, using percent of saturated fluorescent signal to determine percent labeled murine LIV-1 mAb bound and to subsequently extrapolate the EC50 by fitting the data to a sigmoidal dose-response curve with variable slope.
In general terms: In flow cytometry, cells or beads pass a laser one at a time.
B1: the binding result is “no binding (tested: 0.038 nM to 600 nM tested)”. B2 yielded an EC50 of 8.8 µg/mL.

Turning to B3, the EC50 came to 1.5 µg/mL. The molecule B4 displayed an EC50 of 44 µg/mL. The same measure, in the same setting: next, B5: 1.8 µg/mL. On to B6, for which the binding result is listed as “no binding (tested: 0.038 nM to 600 nM tested)”. On to B7, for which the binding result is given as “no binding (tested: 0.038 nM to 600 nM tested)”.

In the case of B8, the binding result is on record as “no binding (tested: 0.038 nM to 600 nM tested)”. Molecule B9 came in with a 50% effective concentration (EC50) of 19.9 µg/mL. Molecule B10 gave an EC50 of 1.3 µg/mL.

For the molecule B11, the binding result is listed as “no binding (tested: 0.038 nM to 600 nM tested)”.

With B12, the binding result is “no binding (tested: 0.038 nM to 600 nM tested)”. Still for that read-out and setting: with B13 the entry was “no binding (tested: 0.038 nM to 600 nM tested)”. As to B14, the midpoint of the response, the EC50, lay at 173 µg/mL.

Consider B15, for which the concentration for a half-maximal effect (EC50) amounted to 1.4 µg/mL. Same read-out and setting: with B16 the figure was 2.3 µg/mL.

In turn, B17 had a half-maximal effective concentration (EC50) of 17.4 µg/mL. On the same count and under the same terms, next, B18: 24.2 µg/mL. The same measure, in the same setting: with B19 the figure was 12.5 µg/mL.

Consider B20, for which the binding result was “no binding (tested: 0.038 nM to 600 nM tested)”. With B21, the response was half-maximal at 66.6 µg/mL (EC50).

As for B22, the binding result is “no binding (tested: 0.038 nM to 600 nM tested)”.

B23 showed an EC50 of 67.9 µg/mL.

In turn, B24 came in with an EC50 of 0.7 µg/mL. Regarding B25, the binding result is reported as “no binding (tested: 0.038 nM to 600 nM tested)”. The molecule B26 returned an EC50 of 25.5 µg/mL. As to B27, the EC50 stood at 37.8 µg/mL. This EC50 and that of the molecule before are within 1.5-fold of each other. On the same count and under the same terms, with B28 the figure was 4.9 µg/mL.
